Experimental data reported in patent US20160184441A1, “PROLAMIN-BASED FILM AND METHOD FOR MANUFACTURING PROLAMIN-BASED ORAL FILM FOR PROTECTING ACTIVITY OF ANTI-OXIDATIVE MATERIAL” (SEHABIO CO., LTD., priority 2014, published 2016).

How the values were obtained:
Human Skin Fibroblasts = settings: Silverberg et al. 2012; cited from earlier work
catalase [1] = assay: Catalase activity by decomposition rate of H2O2 (absorbance at 240 nm), pH 7.0; format: biochemical; settings: free enzyme vs enzyme contained in film (FIG. 2, FIG. 3)
Description: (§1) In the prolamin-based film for oral delivery containing catalase, the activity of catalase was measured by checking the decomposition rate of hydrogen peroxide (H2O2). The activity of catalase was measured by mixing catalase or the prolamin-based film for oral delivery containing catalase with 10 μM of H2O2 in a buffering solution of pH 7.0, and then monitoring the absorbance value of H2O2 at 240 nm. Further, in the prolamin-based film for oral delivery containing SOD, SOD activity was measured in accordance with the manufacturer's instructions by using SOD assay kit (SOD determination kit 19,160, Fluka, St. Louis, Mo.). Significance of results was determined via t-test between Zein film and other films containing SOD or catalase with p<0.05(*).
The activities of catalases contained in the film for oral delivery as prepared in the Comparative Example 1-1 and Example 1-1 were compared. […] 1 mg of each formulation was taken to check the quantity of fluorescence which was then compared with the initially used quantity of fluorescence, resulting in the determination of the quantity of catalase in each formulation. The activity of catalase was evaluated at pH 7.0 as described in Example 2-1 by using fluorescent-unbound catalase, forming Zein Nanoparticle and Film, and taking 1 mg of each formulation. […]

catalase [2] = assay: Catalase activity in the stomach condition (HCl pH 1.3, with or without pepsin); format: biochemical; settings: pH 1.3, 20 minutes, pepsin-treated or pepsin-untreated (FIG. 5, FIG. 6)
Description: as §1
The function of Zein in protecting an anti-oxidative protein in the stomach condition was evaluated. In order to mimic the stomach condition, catalase or the prolamin-based film for oral delivery containing catalase was added into hydrochloric acid solution (50.1 mM HCl, pH 1.3) and left for 20 minutes. […] The activities of catalase and SOD were measured in the same manner as Example 2-1. Significance of results was determined via t-test between free enzymes and other delivery vehicles with p<0.05(*).

catalase [3] = assay: Catalase activity in the small intestine condition (pH 7.4, with or without trypsin); format: biochemical; settings: pH 7.4, 30 minutes
Description: as §1
In order to mimic the small intestine condition, test groups were divided into […] Trypsin-treated group and Trypsin-untreated group, respectively, while being left for 30 minutes in the environment of pH 7.4.
The activities of catalase and SOD were measured in the same manner as Example 2-1. Significance of results was determined via t-test between free enzymes and other delivery vehicles with p<0.05(*).

Molecule	protection of cells from reactive oxygens (Human Skin Fibroblasts)	relative activity of catalase (catalase [1])	relative activity of catalase in the stomach condition (catalase [2])	relative activity of catalase in the small intestine condition, Trypsin-treated (catalase [3]; Trypsin-treated group (FIG. 8, FIG. 9))	relative activity of catalase at pH 7.4, Trypsin-untreated (catalase [3]; Trypsin-untreated group (FIG. 8))
Cn1c(=O)c2c(ncn2C)n(C)c1=O [Caffeine, caffeine]	able to protect cells from reactive oxygens				
catalase		approximately similar to those as contained in the Zein-based film	lost almost completely its activity	lost its activity significantly	maintained its activity
